Molecular target: Bmh1 (UniProt P29311)
Test: Strep-Bmh1 pull-down, stained SDS-PAGE
Conditions: reference: unmodified Hst2

binding against the reference (sites S320)	binding against the reference (sites S324)	Substance
gained		Hst2 (from UniProt P53686) Hst2 S320ph
	gained	Hst2 (from UniProt P53686) Hst2 S324ph

Source: paper PMC7948448
